US20260275304A1, “METHODS AND COMPOSITIONS FOR GLYPHOSATE TOLERANCE IN PLANTS” (Monsanto Technology LLC, priority 2023, published 2026)

B1: TIPS: Zea mays EPSPS double mutant T102I and P106S, SEQ ID NO:9; positive control (protein)
chain: AGAEEIVLQPIKEISGTVKLPGSKSLSNRILLLAALSEGTTVVDNLLNSEDVHYMLGALRTLGLSVEADKAAKRAVVVGCGGKFPVEDSKEEVQLFLGNAGIAMRSLTAAVTAAGGNATYVLDGVPRMRERPIGDLVVGLKQLGADVDCFLGTDCPPVRVNGIGGLPGGKVKLSGSISSQYLSALLMAAPLALGDVEIEIIDKLISIPYVEMTLRLMERFGVKAEHSDSWDRFYIKGGQKYKSPKNAYVEGDASSASYFLAGAAITGGTVTVEGCGTTSLQGDVKFAEVLEMMGAKVTWTETSVTVTGPPREPFGRKHLKAIDVNMNKMPDVAMTLAVVALFADGPTAIRDVASWRVKETERMVAIRTELTKLGASVEEGPDYCIITPPEKLNVTAIDTYDDHRMAMAFSLAACAEVPVAIRDPGCTRKTFPDYFDVLSTFVKN
modifications: Zea mays
notes: positive control
B2: TIPS-P126S-K296R: maize EPSPS variant, probably SEQ ID NO:11 (protein)
chain: AGAEEIVLQPIKEISGTVKLPGSKSLSNRILLLAALSEGTTVVDNLLNSEDVHYMLGALRTLGLSVEADKAAKRAVVVGCGGKFPVEDSKEEVQLFLGNAGIAMRSLTAAVTAAGGNATYVLDGVSRMRERPIGDLVVGLKQLGADVDCFLGTDCPPVRVNGIGGLPGGKVKLSGSISSQYLSALLMAAPLALGDVEIEIIDKLISIPYVEMTLRLMERFGVKAEHSDSWDRFYIKGGQKYKSPKNAYVEGDASSASYFLAGAAITGGTVTVEGCGTTSLQGDVKFAEVLEMMGARVTWTETSVTVTGPPREPFGRKHLKAIDVNMNKMPDVAMTLAVVALFADGPTAIRDVASWRVKETERMVAIRTELTKLGASVEEGPDYCIITPPEKLNVTAIDTYDDHRMAMAFSLAACAEVPVAIRDPGCTRKTFPDYFDVLSTFVKN
modifications: Zea mays

What was measured:
[1] = test system: S. cerevisiae strain sKR-024; assay: Growth of synthetic yeast strain sKR-024 expressing EPSPS variants with or without glyphosate; type: cell-based, Saccharomyces cerevisiae; settings: for growth in yeast minimal media without glyphosate: 0 mM glyphosate
Procedure: EPSPS variants were re-cloned into a clean p416-Core1p backbone and transformed into strain sKR-024 as described above. Colonies were then picked in triplicate into YSC-Ura-Leu and outgrown for 2 days at 30° C. Cultures were then diluted back to OD 0.001 in yeast minimal media (YMM) containing varying amounts of glyphosate as indicated. Growth rate measurements were then obtained using an Infinite M200 PRO microplate reader (Tecan, Männedorf, Switzerland) with incubation at 30° C. for 72-120 hours depending on growth rate of selected variants.
To determine if this system could further corroborate observations from previous literature, the well-studied EPSPS mutants T102I and P106S, and the combined double mutant TIPS (T102I-P106S) were generated and complemented into this yeast system. These mutations were reported to result in varying degrees of glyphosate resistance.
Having established low copy number and weak promoter expression of EPSPS variants, it was sought to recharacterize phenotypes under field conditions that are used in planta. […] It has been reported previously that under standard glyphosate foliar application, 0.3 mM or more of glyphosate (gly) can accumulate in a plant's root nodules and meristems. […] These trends support reported literature of mutants P106S and TIPS grown in various plant hosts. As a result, the present synthetic yeast model system closely resembles in planta observations and thus can be used to select for dual-trait EPSPS variants aimed at both enzymatic efficiency and glyphosate resistance.
Select mutants isolated from the final directed evolution campaign with the improved selection strategy were further evaluated in assorted glyphosate concentrations to determine growth characteristics. Mutants isolated from an EPSPS background were evaluated in media containing 0 mM and 0.25 mM glyphosate with the latter being the concentration at which wild-type EPSPS cannot grow after 100 hours. […] The non-glyphosate mono selection highlighted in blue represents mutations resulting from 5 subcultures in 0 mM glyphosate. The low glyphosate dual selection highlighted in light green represents mutants resulting from an additional subculture into 0.5 mM glyphosate. Lastly, the high glyphosate dual selection highlighted in dark green represent mutations isolated after subcultures in increasing levels of glyphosate, up to 10 mM.

transgenic maize plants = assay: Maize transformation with glyphosate selection, plantlet recovery and quality checks; type: in vivo, Zea mays; settings: for Number of young plants passing quality control checks: in vivo; for Number of plantlets generated: under glyphosate selection, same amount of starting material
Excerpt: Maize was used as a model system to test the functionality of the EPSPS variants because of detailed previous characterization of glyphosate tolerance in maize and a suitable transgenic plant generation protocol that relies on glyphosate. Plant transformation vectors were generated in which the native maize EPSPS sequence was used, which includes the native gene promoter elements, the native introns and exons and the native 3′ untranslated region and introduced mutations that corresponded to each of the selected amino acid changes. The native sequence was used to mimic as closely as possible how the selected EPSPS variants would perform if the variants were introduced directly in the genome without the help of strong expression elements. The following variants were selected for testing in a transgenic maize system: TIPS (as a control); TIPS-P126S-M217L-K296R; TIPS-P126S-K296R; T102I-P126S-K296R (where only the T102I change is present); P106S-P126S-K296R (where only the P106S change is present); and P126S-K296R (where neither of the TIPS changes are present).
Transgenic maize plants that expressed each of the six EPSPS variants were generated to determine if the variants conferred glyphosate tolerance to plants. The full DNA sequence encoding TIPS EPSPS (SEQ ID NO:1) was cloned from maize genomic DNA. In this sequence, the promoter and 5′ UTR are nucleotides 1:2556; the chloroplast transit peptide sequence is nucleotides 2557:2742; EXON 1 is nucleotides 2743:2856; INTRON 1 is nucleotides 2857:3384; EXON 2 is nucleotides 3385:3626; INTRON 2 is nucleotides 3627:3725; EXON 3 is nucleotides 3726:3879; INTRON 3 is nucleotides 3880:4152; EXON 4 is nucleotides 4153:4367; INTRON 4 is nucleotides 4368:4877; EXON 5 is nucleotides 4878:4995; INTRON 5 is nucleotides 4996:5155; EXON 6 is nucleotides 5156:5366; INTRON 6 is nucleotides 5367:5446; EXON 7 is nucleotides 5447:5508; INTRON 7 is nucleotides 5509:5617; EXON 8 is nucleotides 5618:5836; and the 3′ UTR is nucleotides 5837:6368. Mutations were then introduced into the EPSPS coding sequence in order to produce each of the six EPSPS variants to be tested. These mutated full genomic DNA sequences were then each cloned as a single expression cassette into plant transformation vectors.
Agrobacterium tumefaciens-mediated plant transformation was performed using methods known in the art. Glyphosate selection was used to select for transgenic events containing the transgene of interest and further screened for only those EPSPS variants that provided effective glyphosate tolerance in a plant cell. While all six EPSPS variants began the transformation process with the same amount of starting maize cellular material, there were differences in the number of small plantlets recovered that were capable of being transplanted to greenhouse soil media (Table 4). Transgenic events were further analyzed to determine transgene copy number. Healthy events with single copy of the transgene of interest were grown in the greenhouse soil media. Only three of the six EPSPS variants had more than one plant surviving. Up to twenty-five of these developing R0 plants were transplanted to larger pots and allowed to grow to maturity for seed collection in the greenhouse.

Molecule	growth in yeast minimal media without glyphosate [1]	growth in glyphosate ([1]; 0.5 mM glyphosate, Core1p promoter)	order of glyphosate tolerance ([1]; 5 mM glyphosate, FIG. 1 Panel C)	Number of young plants passing quality control checks (transgenic maize plants)	Number of plantlets generated (transgenic maize plants)	growth across glyphosate levels ([1]; 0.05 mM to 5 mM glyphosate)
B1	grew at a significant deficit	grew well in the presence of glyphosate	P106S<T102I<TIPS	35	192	–
B2	performed very similarly to wild-type EPSPS	–	–	38	190	performed extremely well in every condition of glyphosate
